# Where no end group is shown, it is not given here. The star is where a group is joined. Biotin = O=C1N[C@H]2[C@H](CS[C@H]2CCCCC(=O)*)N1; Dnp = O=[N+]([O-])c1ccc(*)c([N+](=O)[O-])c1; Mca = COc1ccc2c(CC(=O)*)cc(=O)oc2c1
# T1: f-Sub M (7-methoxycoumarin-4-acetyl-SEVNLDAEFRK(Dnp)-RR-NH2)
# T1 peptide: Mca-SEVNLDAEFRK(Dnp)RR-NH2
# T2: Substrate M (decamer containing the β-secretase cleavage site of Swedish mutant APP), non-labelled
# T2 peptide: SEVNLDAEFR
# T3: Sub-ST6Gal1 (non-labelled)
# T3 peptide: DYEALTLQAKEFQMPKSQE
# T4: biotin-labeled Substrate W
# T4 construct: also called bio-Sub W; N-terminally biotinylated Substrate W
# T4 peptide: Biotin-SEVKMDAEFR
# T5: biotin-labeled Substrate M
# T5 construct: also called bio-Sub M; N-terminally biotinylated Substrate M
# T5 peptide: Biotin-SEVNLDAEFR
# Tests used:
# [1] = target: T1, f-Sub M …; assay: cell-based or functional assay
# [2] = target: T2, Substrate M (decamer containing the …); assay: cell-based or functional assay
# [3] = target: T3, Sub-ST6Gal1 (non-labelled); assay: cell-based or functional assay
# [4] = target: T4, biotin-labeled Substrate W; assay: plate assay: HC peptide chemically coupled to plate, bio-Sub W, Str-HRP (FIG. 27)
# Experimental: (§1) Reacti-BindTM maleic anhydride-activated polystyrene plate (Pierce, Ill., USA) was coated with 50 μl of HC peptide (200 μM in distilled water) by chemical coupling for 3 h at room temperature (RT) and washed three times with phosphate buffered saline (PBS) containing 0.05% tween 20 (PBST). The plate was blocked with blocking buffer (0.5% gelatin in PBS) for 1 h at RT. After discarding blocking buffer, biotinylated BACE1 substrates (200 μM) in blocking buffer was applied on the plate and incubated for 2.5 h at RT. Each well was washed three times with PBST. The bound biotinylated BACE1 substrates were detected by incubation with streptavidin-horseradish peroxidase (Str-HRP, 125 mU/ml in blocking buffer) for 2 h at RT. Color reaction was carried out with 50 μl of 3,3′,5,5′-Tetramethylbenzidine Liquid Substrate (Sigma-Aldrich, Mo., USA). After stopping the reaction by addition of an equal volume of 1 N HCl, absorbance at 450 nm was read in an automated ELISA reader (EL 312e, Bio-Tek Instruments, VT, USA). All assays were carried out in duplicate.
# [5] = target: T4, biotin-labeled Substrate W; assay: plate assay: complementary peptide immobilised, biotinylated substrate, streptavidin-HRP
# [6] = target: T5, biotin-labeled Substrate M; assay: plate assay: HC peptide chemically coupled to plate, bio-Sub M, Str-HRP, A450 (Table 1)
# Experimental: as §1
# [7] = target: T5, biotin-labeled Substrate M; assay: plate assay: complementary peptide immobilised, biotinylated substrate, streptavidin-HRP
# [8] = target: T6, recombinant human β-secretase (rhBACE1) (human, UniProt P56817 22-457, limits assumed); assay: ELISA, c-Sub M immobilised
# T6 construct: Bought
# [9] = target: T5, biotin-labeled Substrate M; assay: plate assay: HC peptide chemically coupled to plate, bio-Sub M, Str-HRP, A450 (Table 2)
# Experimental: as §1
# T6 sequence (P56817 22-457 limits assumed): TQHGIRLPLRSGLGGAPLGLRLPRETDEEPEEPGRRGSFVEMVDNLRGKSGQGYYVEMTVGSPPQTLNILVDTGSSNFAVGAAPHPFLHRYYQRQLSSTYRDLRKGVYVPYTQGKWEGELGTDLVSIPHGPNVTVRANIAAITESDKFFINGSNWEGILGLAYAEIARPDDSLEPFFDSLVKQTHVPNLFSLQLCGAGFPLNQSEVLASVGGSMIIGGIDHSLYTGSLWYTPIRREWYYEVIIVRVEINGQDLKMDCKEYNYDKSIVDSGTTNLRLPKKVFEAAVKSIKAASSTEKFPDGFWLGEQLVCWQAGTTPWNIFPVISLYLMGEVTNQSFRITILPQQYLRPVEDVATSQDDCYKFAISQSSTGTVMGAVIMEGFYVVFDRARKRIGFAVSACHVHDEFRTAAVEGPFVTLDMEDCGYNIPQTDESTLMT
binder,measurement,setting,value
SEFCIQ-NH2 [c-Sub M ΔC4 (SEFCIQ)],"percent inhibition of f-Sub M cleavage by rhBACE1 (peptide 1 mM, f-Sub M 10 µM)",[1],> 90%
SEFCIQIH-NH2 [c-Sub M ΔC2 (SEFCIQIH)],"percent inhibition of f-Sub M cleavage by rhBACE1 (peptide 1 mM, f-Sub M 10 µM)",[1],44%
EFCIQIHF-NH2 (also called one amino acid deletion from N-terminal of c-Sub M ΔC1) [c-Sub M ΔN1C1 (EFCIQIHF)],IC50 of inhibition of f-Sub M (10 µM) cleavage by rhBACE1 (FRET),[1],15 µM
same,"percent inhibition of substrate cleavage by rhBACE1 (HPLC), inhibitor/substrate ratio 20",[2],100%
same,"percent inhibition of substrate cleavage by rhBACE1 (HPLC), inhibitor/substrate ratio up to 10",[2],60%
same,"percent inhibition of substrate cleavage by rhBACE1 (HPLC), inhibitor/substrate ratio 20",[3],40%
same,"percent inhibition of substrate cleavage by rhBACE1 (HPLC), inhibitor/substrate ratio up to 10",[3],~10%
same,fold binding to Sub W relative to c-Sub W,[4],2.5 fold
SEFCIQI-NH2 [c-Sub M ΔC3 (SEFCIQI)],"percent inhibition of f-Sub M cleavage by rhBACE1 (peptide 1 mM, f-Sub M 10 µM)",[1],> 90%
"SEFCIHLHFR-NH2 (Hydropathic complementary peptide designed from the antisense strand of Sub W, read 5'->3') [c-Sub W (SEFCIHLHFR)]",binding result,[5],binds
same,binding result,[6],binds
CIQIHF-NH2 (also called c-Sub MΔC1N3; c-Sub ΔN3C1) [c-Sub M ΔN3C1 (CIQIHF)],"inhibitory activity relative to c-Sub M ΔN1C1 (FRET, f-Sub M 10 µM)",[1],~0.1 fold
same,binding result,[4],binds
RLHFYLRLKA-NH2 (Complementary peptide of Sub W read 3'->5') [Sub W-c (RLHFYLRLKA)],binding result,[6],binds
"SEFCIQIHFR-NH2 (Hydropathic complementary peptide designed from the antisense strand of Sub M, read 5'->3'; also called HC peptide c-Sub M) [c-Sub M (SEFCIQIHFR)]","percent inhibition of f-Sub M cleavage by rhBACE1 (FRET), peptide 100 fold over substrate",[1],~50%
same,"percent inhibition of f-Sub M cleavage by rhBACE1 (peptide 1 mM, f-Sub M 10 µM)",[1],45%
same,fold binding to Sub W relative to c-Sub W,[4],4 fold
same,binding result,[7],binds
same,binding result,[8],no binding
FCIQIHF-NH2 [c-Sub M ΔN2C1 (FCIQIHF)],"percent of substrate cleavage by β-secretase blocked (HPLC), 25-fold inhibitor",[2],~60%
same,"percent of substrate cleavage by β-secretase blocked (HPLC), 25-fold inhibitor",[3],25%
same,binding result,[4],binds
SEFCIQIHF-NH2 (also called c-SubM CΔ1) [c-Sub M ΔC1 (SEFCIQIHF)],"percent inhibition of f-Sub M cleavage by rhBACE1 (peptide 1 mM, f-Sub M 10 µM)",[1],90%
same,binding result,[9],binds
SEFCI-NH2 [c-Sub M ΔC5 (SEFCI)],"percent inhibition of f-Sub M cleavage by rhBACE1 (peptide 1 mM, f-Sub M 10 µM)",[1],> 90%
